From FireProtDB (doi:10.1016/0167-4838(91)90474-e)
“And” between values parts separate entries of the source, which are not always exact repeats. Identical values can stand only once.

Details: Gallus gallus, Absorbance, Sodium phosphate 0.06 M, reversible: yes, whole UniProt chain shown; for unfolding enthalpy (van 't Hoff): Thermal; for denaturant m value / denaturant midpoint (higher = more stable) / unfolding free energy: 25 °C, Urea

B1: Ovomucoid wild type, P01005 (protein)
chain: MAMAGVFVLFSFVLCGFLPDAAFGAEVDCSRFPNATDKEGKDVLVCNKDLRPICGTDGVTYTNDCLLCAYSIEFGTNISKEHDGECKETVPMNCSSYANTTSEDGKVMVLCNRAFNPVCGTDGVTYDNECLLCAHKVEQGASVDKRHDGGCRKELAAVSVDCSEYPKPDCTAEDRPLCGSDNKTYGNKCNFCNAVVESNGTLTLSHFGKC
- unfolding enthalpy (van 't Hoff) (pH 5): 34 kcal/mol and 30 kcal/mol
- unfolding enthalpy (van 't Hoff) (pH 5, transition: 3): 30 kcal/mol and 44 kcal/mol
- denaturant m value (pH 7): 1.35 kcal/mol/M and 1.15 kcal/mol/M
- denaturant midpoint (higher = more stable) (pH 7): 2.7 M and 2.8 M
- unfolding free energy (pH 7): 4.65 kcal/mol and 3.39 kcal/mol
- denaturant m value (pH 7, transition: 3): 1.01 kcal/mol/M and 1.03 kcal/mol/M and 1.02 kcal/mol/M
- denaturant midpoint (higher = more stable) (pH 7, transition: 3): 7.3 M and 2.8 M and 6.9 M
- unfolding free energy (pH 7, transition: 3): 7.66 kcal/mol and 3.39 kcal/mol and 7.42 kcal/mol
- unfolding enthalpy (van 't Hoff) (pH 7): 58 kcal/mol and 37 kcal/mol
- unfolding enthalpy (van 't Hoff) (pH 7, transition: 3): 82 kcal/mol and 54 kcal/mol and 46 kcal/mol
